Source: the supplement of paper PMC5998384

What was measured:
HeLa Kyoto [1] = assay: melting temperature (median over replicates), in situ; higher = more thermally stable
HeLa Kyoto [2] = assay: solubility in G1/S (NP-40 vs SDS abundance) (log2 ratio); higher = more soluble; conditions: cell cycle stage: G1/S
HeLa Kyoto [3] = assay: thermal stability score vs G1/S (z-score of summed log2 fold changes over temperatures); higher = more thermally stable than in G1/S
HeLa Kyoto [4] = assay: solubility change mitosis vs G1/S (difference of NP-40 vs SDS log2 ratios) (log2 ratio difference); higher = more soluble in mitosis
[5] = cell cycle stage: early G1 (4.5 h after nocodazole release)
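Throughout, for melting temperature (median over replicates), in situ: HeLa Kyoto cells synchronized by double thymidine or nocodazole block, proteins quantified by TMT10plex mass spectrometry, three independent biological replicates.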
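Throughout, for solubility change mitosis vs G1/S (difference of NP-40 vs SDS log2 ratios): synchronized HeLa Kyoto cells (double thymidine block for G1/S, nocodazole release for mitosis), protein amounts in NP-40 versus SDS lysates quantified by mass spectrometry, three biological replicates.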
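Throughout, for solubility in G1/S (NP-40 vs SDS abundance): HeLa Kyoto cells arrested at G1/S by double thymidine block, proteins quantified by TMT10plex mass spectrometry in mild NP-40 versus SDS extracts, three biological replicates.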
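Throughout, for thermal stability score vs G1/S (z-score of summed log2 fold changes over temperatures): synchronized HeLa Kyoto cells, proteins quantified by TMT10plex mass spectrometry, three biological replicates, mitosis taken 0.5 h after nocodazole release, G1/S directly after double thymidine block.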

| Sequence | melting temperature (HeLa Kyoto [1]; cell cycle stage: G1/S) [°C] | melting temperature (HeLa Kyoto [1]; cell cycle stage: mitosis) [°C] | solubility in G1/S (log2) (HeLa Kyoto [2]) | thermal stability score (HeLa Kyoto [3]; [5]) | thermal stability score (HeLa Kyoto [3]; cell cycle stage: mitosis) | solubility change mitosis (log2) (HeLa Kyoto [4]) |
| --- | --- | --- | --- | --- | --- | --- |
| MEEIYAKFVSQKISKTRWRPLPPGSLQTAETFATGSWDNEENYISLWSIGDFGNLDSDGGFEGDHQLLCDIRHHGDVMDLQFFDQERIVAASSTGCVTVFLHHPNNQTLSVNQQWTTAHYHTGPGSPSYSSAPCTGVVCNNPEIVTVGEDGRINLFRADHKEAVRTIDNADSSTLHAVTFLRTPEILTVNSIGQLKIWDFRQQGNEPSQILSLTGDRVPLHCVDRHPNQQHVVATGGQDGMLSIWDVRQGTMPVSLLKAHEAEMWEVHFHPSNPEHLFTCSEDGSLWHWDASTDVPEKSSLFHQGGRSSTFLSHSISNQANVHQSVISSWLSTDPAKDRIEITSLLPSRSLSVNTLDVLGPCLVCGTDAEAIYVTRHLFS [NUP43] | 53.1 | 53.1 | -0.175 | -1.7 | -3.31 | 0.0611 |
| MEEKPGQPQPQHHHSHHHPHHHPQQQQQQPHHHHHYYFYNHSHNHHHHHHHQQPHQYLQHGAEGSPKAQPKPLKHEQKHTLQQHQETPKKKTGYGELNGNAGEREISLKNLSSDEATNPISRVLNGNQQVVDTSLKQTVKANTFGKAGIKTKNFIQKNSMDKKNGKSYENKSGENQSVDKSDTIPIPNGVVTNNSGYITNGYMGKGADNDGSGSESGYTTPKKRKARRNSAKGCENLNIVQDKIMQQETSVPTLKQGLETFKPDYSEQKGNRVDGSKPIWKYETGPGGTSRGKPAVGDMLRKSSDSKPGVSSKKFDDRPKGKHASAVASKEDSWTLFKPPPVFPVDNSSAKIVPKISYASKVKENLNKTIQNSSVSPTSSSSSSSSTGETQTQSSSRLSQVPMSALKSVTSANFSNGPVLAGTDGNVYPPGGQPLLTTAANTLTPISSGTDSVLQDMSLTSAAVEQIKTSLFIYPSNMQTMLLSTAQVDLPSQTDQQNLGDIFQNQWGLSFINEPSAGPETVTGKSSEHKVMEVTFQGEYPATLVSQGAEIIPSGTEHPVFPKAYELEKRTSPQVLGSILKSGTTSESGALSLEPSHIGDLQKADTSSQGALVFLSKDYEIESQNPLASPTNTLLGSAKEQRYQRGLERNDSWGSFDLRAAIVYHTKEMESIWNLQKQDPKRIITYNEAMDSPDQ [NUFIP2] | 53.8 | 52.4 | -0.731 | -0.0647 | -0.912 | 0.593 |
| MEELIVELRLFLELLDHEYLTSTVREKKAVITNILLRIQSSKGFDVKDHAQKQETANSLPAPPQMPLPEIPQPWLPPDSGPPPLPTSSLPEGYYEEAVPLSPGKAPEYITSNYDSDAMSSSYESYDEEEEDGKGKKTRHQWPSEEASMDLVKDAKICAFLLRKKRFGQWTKLLCVIKDTKLLCYKSSKDQQPQMELPLQGCNITYIPKDSKKKKHELKITQQGTDPLVLAVQSKEQAEQWLKVIKEAYSGCSGPVDSECPPPPSSPVHKAELEKKLSSERPSSDGEGVVENGITTCNGKEQVKRKKSSKSEAKGTVSKVTGKKITKIISLGKKKPSTDEQTSSAEEDVPTCGYLNVLSNSRWRERWCRVKDNKLIFHKDRTDLKTHIVSIPLRGCEVIPGLDSKHPLTFRLLRNGQEVAVLEASSSEDMGRWIGILLAETGSSTDPEALHYDYIDVEMSASVIQTAKQTFCFMNRRVISANPYLGGTSNGYAHPSGTALHYDDVPCINGSLKGKKPPVASNGVTGKGKTLSSQPKKADPAAVVKRTGSNAAQYKYGKNRVEADAKRLQTKEEELLKRKEALRNRLAQLRKERKDLRAAIEVNAGRKPQAILEEKLKQLEEECRQKEAERVSLELELTEVKESLKKALAGGVTLGLAIEPKSGTSSPQSPVFRHRTLENSPISSCDTSDTEGPVPVNSAAVLKKSQAAPGSSPCRGHVLRKAKEWELKNGT [AFAP1] | 50.5 | 49.7 | -0.611 | -1.47 | -2.94 | 0.451 |
| MEELLRRELGCSSVRATGHSGGGCISQGRSYDTDQGRVFVKVNPKAEARRMFEGEMASLTAILKTNTVKVPKPIKVLDAPGGGSVLVMEHMDMRHLSSHAAKLGAQLADLHLDNKKLGEMRLKEAGTVGRGGGQEERPFVARFGFDVVTCCGYLPQVNDWQEDWVVFYARQRIQPQMDMVEKESGDREALQLWSALQLKIPDLFRDLEIIPALLHGDLWGGNVAEDSSGPVIFDPASFYGHSEYELAIAGMFGGFSSSFYSAYHGKIPKAPGFEKRLQLYQLFHYLNHWNHFGSGYRGSSLNIMRNLVK [FN3KRP] | 61.1 | 58.3 | 0.12 | -1.05 | -2.45 | 0.00242 |
| MEEMSGESVVSSAVPAAATRTTSFKGTSPSSKYVKLNVGGALYYTTMQTLTKQDTMLKAMFSGRMEVLTDSEGWILIDRCGKHFGTILNYLRDGAVPLPESRREIEELLAEAKYYLVQGLVEECQAALQNKDTYEPFCKVPVITSSKEEQKLIATSNKPAVKLLYNRSNNKYSYTSNSDDNMLKNIELFDKLSLRFNGRVLFIKDVIGDEICCWSFYGQGRKIAEVCCTSIVYATEKKQTKVEFPEARIYEETLNILLYEAQDGRGPDNALLEATGGAAGRSHHLDEDEERERIERVRRIHIKRPDDRAHLHQ [KCTD10] | – | 51.6 | -1.29 | 0.937 | 1.24 | 0.647 |
| MEESPLSRAPSRGGVNFLNVARTYIPNTKVECHYTLPPGTMPSASDWIGIFKVEAACVRDYHTFVWSSVPESTTDGSPIHTSVQFQASYLPKPGAQLYQFRYVNRQGQVCGQSPPFQFREPRPMDELVTLEEADGGSDILLVVPKATVLQNQLDESQQERNDLMQLKLQLEGQVTELRSRVQELERALATARQEHTELMEQYKGISRSHGEITEERDILSRQQGDHVARILELEDDIQTISEKVLTKEVELDRLRDTVKALTREQEKLLGQLKEVQADKEQSEAELQVAQQENHHLNLDLKEAKSWQEEQSAQAQRLKDKVAQMKDTLGQAQQRVAELEPLKEQLRGAQELAASSQQKATLLGEELASAAAARDRTIAELHRSRLEVAEVNGRLAELGLHLKEEKCQWSKERAGLLQSVEAEKDKILKLSAEILRLEKAVQEERTQNQVFKTELAREKDSSLVQLSESKRELTELRSALRVLQKEKEQLQEEKQELLEYMRKLEARLEKVADEKWNEDATTEDEEAAVGLSCPAALTDSEDESPEDMRLPPYGLCERGDPGSSPAGPREASPLVVISQPAPISPHLSGPAEDSSSDSEAEDEKSVLMAAVQSGGEEANLLLPELGSAFYDMASGFTVGTLSETSTGGPATPTWKECPICKERFPAESDKDALEDHMDGHFFFSTQDPFTFE [CALCOCO1] | 50.2 | 50.3 | 0.13 | 0.0224 | 0.762 | -0.128 |
